Measurements published in US20220098265A1 (MEDIMMUNE LIMITED, priority 2012, published 2022).
Where two headings read alike, the source gives them in different places. Blank lines part the entries; values can stand above or below the molecule they belong to. Numbered stars: 1 amine (or outer) side, 2 acyl side, 3 side chain; on linkers, the order of the positions; unused ones are H or OH. Side chains are listed from the residue outwards. Ends that are not written are not given here. * marks the point of attachment. γGlu = O=C(O)[C@H](CCC(=O)[*:2])N[*:1]; Palmitoyl = CCCCCCCCCCCCCCCC(=O)*

Assays:
Mouse GlucR = Mouse GlucR (Mus musculus, UniProt Q61606); experiment: cAMP assay 2 in […] mouse serum albumin, mouse GlucR; details: assay 2, […] Mouse Serum Albumin; relative potencies vs natural ligands
Human GlucR = Human GlucR (Homo sapiens, UniProt P47871); experiment: cAMP assay 2 in 4.4% human serum albumin, human GlucR; details: assay 2, 4.4% Human Serum Albumin; relative potency GlucR (vs glucagon)/relative potency GLP1R (vs GLP1)
[1] = frozen blank plasma from rat; details: 37° C, up to 48 hours
[2] = frozen blank plasma from mouse; details: 37° C, up to 48 hours
human GLP-1 receptor [3] = biological target: T1, human GLP-1 receptor (human, UniProt P43220 24-463); experiment: cell-based or functional assay
human glucagon receptor [4] = biological target: T2, human glucagon receptor (human, UniProt P47871 26-477); experiment: cell-based or functional assay
human GLP-1 receptor [5] = biological target: T1, human GLP-1 receptor; experiment: cell-based or functional assay; remark: listed apart in the source
[6] = biological target: T3, human glucose-dependent insulinotropic peptide (gastric inhibitory polypeptide) receptor (human, UniProt P48546 22-466); experiment: cell-based or functional assay
T3 sequence (looked up): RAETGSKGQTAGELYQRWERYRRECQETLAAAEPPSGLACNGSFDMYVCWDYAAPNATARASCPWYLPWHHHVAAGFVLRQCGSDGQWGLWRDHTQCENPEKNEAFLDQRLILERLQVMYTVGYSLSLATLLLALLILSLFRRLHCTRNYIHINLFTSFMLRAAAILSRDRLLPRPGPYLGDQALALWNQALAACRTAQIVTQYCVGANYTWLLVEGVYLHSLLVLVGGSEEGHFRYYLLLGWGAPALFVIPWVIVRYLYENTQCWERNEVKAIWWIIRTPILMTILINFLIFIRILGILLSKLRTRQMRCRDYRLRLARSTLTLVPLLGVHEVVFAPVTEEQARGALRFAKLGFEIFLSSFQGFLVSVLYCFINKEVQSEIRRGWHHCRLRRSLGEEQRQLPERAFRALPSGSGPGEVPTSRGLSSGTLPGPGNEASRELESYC

human glucagon receptor [7] = biological target: T2, human glucagon receptor; experiment: cell-based or functional assay; remark: listed apart in the source
human GLP-1 receptor [8] = biological target: T1, human GLP-1 receptor; experiment: cell-based or functional assay; remark: listed apart in the source
[9] = biological target: T3, human glucose-dependent insulinotropic …; experiment: cell-based or functional assay; remark: listed apart in the source
human glucagon receptor [10] = biological target: T2, human glucagon receptor; experiment: cell-based or functional assay; remark: listed apart in the source
human GLP-1 receptor [11] = biological target: T1, human GLP-1 receptor; experiment: cell-based or functional assay; remark: listed apart in the source
mouse GLP-1 receptor = biological target: T4, mouse GLP-1 receptor (mouse, UniProt O35659 22-463); experiment: cell-based or functional assay
T4 sequence (looked up): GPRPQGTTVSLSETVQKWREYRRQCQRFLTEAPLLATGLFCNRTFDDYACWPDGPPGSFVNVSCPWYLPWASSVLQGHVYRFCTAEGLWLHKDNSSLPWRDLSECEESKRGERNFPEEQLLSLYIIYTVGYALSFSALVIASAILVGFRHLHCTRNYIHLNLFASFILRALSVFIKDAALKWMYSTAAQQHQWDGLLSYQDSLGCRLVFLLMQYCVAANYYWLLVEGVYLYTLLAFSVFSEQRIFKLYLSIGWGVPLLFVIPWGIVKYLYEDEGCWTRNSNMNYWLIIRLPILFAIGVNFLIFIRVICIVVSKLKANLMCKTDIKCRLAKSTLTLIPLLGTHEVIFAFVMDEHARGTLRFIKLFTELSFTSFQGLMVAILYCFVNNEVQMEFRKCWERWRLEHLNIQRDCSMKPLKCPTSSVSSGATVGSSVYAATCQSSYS

mouse glucagon receptor = mouse glucagon receptor (mouse, UniProt Q61606 27-485); experiment: cell-based or functional assay
rat GLP-1 receptor = biological target: T5, rat GLP-1 receptor (rat, UniProt P32301 22-463); experiment: cell-based or functional assay
T5 sequence (looked up): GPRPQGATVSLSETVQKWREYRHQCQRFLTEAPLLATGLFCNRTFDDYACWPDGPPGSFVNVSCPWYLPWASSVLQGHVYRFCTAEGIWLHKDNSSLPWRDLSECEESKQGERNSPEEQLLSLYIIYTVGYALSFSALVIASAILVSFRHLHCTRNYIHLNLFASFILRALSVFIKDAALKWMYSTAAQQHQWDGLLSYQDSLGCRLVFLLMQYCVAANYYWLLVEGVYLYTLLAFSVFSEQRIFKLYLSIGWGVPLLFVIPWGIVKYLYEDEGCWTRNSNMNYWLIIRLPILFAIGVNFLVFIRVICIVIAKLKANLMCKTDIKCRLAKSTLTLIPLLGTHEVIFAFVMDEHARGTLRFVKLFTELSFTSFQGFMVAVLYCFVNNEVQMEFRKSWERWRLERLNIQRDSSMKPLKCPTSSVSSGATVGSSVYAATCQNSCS

rat glucagon receptor = rat glucagon receptor (rat, UniProt P30082 27-485); experiment: cell-based or functional assay
human serum albumin = human serum albumin (Homo sapiens, UniProt P02768); experiment: calculated from the variation in cAMP generation with the HSA concentration (assay 2)
Sequence of human serum albumin (P02768 25-609 limits assumed): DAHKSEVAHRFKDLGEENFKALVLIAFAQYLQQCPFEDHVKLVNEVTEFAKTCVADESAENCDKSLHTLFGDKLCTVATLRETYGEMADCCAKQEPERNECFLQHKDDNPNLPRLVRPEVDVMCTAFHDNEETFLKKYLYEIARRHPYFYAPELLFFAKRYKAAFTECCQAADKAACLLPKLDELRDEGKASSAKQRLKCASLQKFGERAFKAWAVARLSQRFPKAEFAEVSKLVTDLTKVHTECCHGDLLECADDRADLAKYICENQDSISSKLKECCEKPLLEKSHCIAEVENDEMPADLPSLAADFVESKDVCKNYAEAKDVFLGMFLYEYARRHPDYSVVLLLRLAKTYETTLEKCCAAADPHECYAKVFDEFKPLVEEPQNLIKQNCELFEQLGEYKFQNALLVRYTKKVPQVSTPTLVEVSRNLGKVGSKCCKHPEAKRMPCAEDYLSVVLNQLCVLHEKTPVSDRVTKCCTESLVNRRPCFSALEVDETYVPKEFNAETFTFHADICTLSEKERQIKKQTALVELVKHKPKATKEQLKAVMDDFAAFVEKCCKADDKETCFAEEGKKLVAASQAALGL

T2 sequence (P47871 26-477): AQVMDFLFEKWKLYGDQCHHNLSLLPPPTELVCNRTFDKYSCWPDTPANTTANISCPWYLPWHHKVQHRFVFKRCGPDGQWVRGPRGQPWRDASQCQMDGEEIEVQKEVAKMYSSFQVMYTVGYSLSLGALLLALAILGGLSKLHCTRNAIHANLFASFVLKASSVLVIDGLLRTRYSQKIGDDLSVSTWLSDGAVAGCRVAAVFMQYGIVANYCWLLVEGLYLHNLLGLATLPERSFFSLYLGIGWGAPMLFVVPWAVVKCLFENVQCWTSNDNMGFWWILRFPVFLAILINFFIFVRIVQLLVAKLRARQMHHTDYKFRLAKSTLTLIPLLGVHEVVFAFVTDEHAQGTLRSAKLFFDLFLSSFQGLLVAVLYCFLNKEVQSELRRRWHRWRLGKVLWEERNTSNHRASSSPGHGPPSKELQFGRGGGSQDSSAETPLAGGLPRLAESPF
Sequence of Human GlucR (P47871 26-477): as above
Sequence of rat glucagon receptor (P30082 27-485): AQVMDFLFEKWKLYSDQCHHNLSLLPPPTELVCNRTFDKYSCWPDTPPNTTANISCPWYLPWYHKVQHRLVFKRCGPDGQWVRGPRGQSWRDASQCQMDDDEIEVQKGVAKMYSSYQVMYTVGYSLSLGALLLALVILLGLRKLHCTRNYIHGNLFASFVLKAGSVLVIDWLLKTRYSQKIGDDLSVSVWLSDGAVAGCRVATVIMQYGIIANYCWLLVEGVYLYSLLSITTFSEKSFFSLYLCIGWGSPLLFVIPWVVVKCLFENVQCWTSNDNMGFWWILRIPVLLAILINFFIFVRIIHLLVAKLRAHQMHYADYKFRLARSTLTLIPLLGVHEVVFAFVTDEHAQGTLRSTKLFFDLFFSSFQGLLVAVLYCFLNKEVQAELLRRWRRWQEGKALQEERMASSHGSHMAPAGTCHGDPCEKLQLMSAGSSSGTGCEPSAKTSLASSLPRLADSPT
Sequence of mouse glucagon receptor (Q61606 27-485): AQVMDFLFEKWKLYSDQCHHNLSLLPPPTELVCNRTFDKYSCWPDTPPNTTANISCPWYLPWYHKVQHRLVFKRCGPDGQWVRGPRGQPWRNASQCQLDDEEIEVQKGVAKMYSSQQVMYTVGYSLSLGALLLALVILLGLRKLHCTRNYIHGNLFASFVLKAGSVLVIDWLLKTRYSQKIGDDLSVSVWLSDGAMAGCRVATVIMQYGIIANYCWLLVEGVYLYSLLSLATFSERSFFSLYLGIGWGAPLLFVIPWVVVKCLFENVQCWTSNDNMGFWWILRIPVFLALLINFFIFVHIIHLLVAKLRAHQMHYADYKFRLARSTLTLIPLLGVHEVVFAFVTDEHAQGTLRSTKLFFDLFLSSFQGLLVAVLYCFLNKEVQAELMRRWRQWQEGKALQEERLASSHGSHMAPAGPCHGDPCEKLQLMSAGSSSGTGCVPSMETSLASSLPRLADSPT
Sequence of Mouse GlucR (Q61606 27-485): as above

Mouse GlucR/GLP1R Ratio (Mouse GlucR): 0.006 | Human GlucR/GLP1R Ratio (Human GlucR): 0.013
Molecule: CCCCCCCCCCCCCCCC(=O)N[C@@H](CCC(=O)NCCCC[C@H](NC(=O)[C@H](CO)NC(=O)[C@H](CC(=O)O)NC(=O)[C@H](CC(C)C)NC(=O)[C@H](Cc1ccc(O)cc1)NC(=O)[C@H](CCCCN)NC(=O)[C@H](CO)NC(=O)[C@H](Cc1ccc(O)cc1)NC(=O)[C@H](CC(=O)O)NC(=O)[C@H](CO)NC(=O)[C@@H](NC(=O)[C@H](Cc1ccccc1)NC(=O)[C@@H](NC(=O)CNC(=O)[C@H](CCC(N)=O)NC(=O)CNC(=O)[C@@H](N)Cc1c[nH]cn1)[C@@H](C)O)[C@@H](C)O)C(=O)N[C@@H](CCCNC(=N)N)C(=O)N[C@@H](C)C(=O)N[C@@H](CCC(N)=O)C(=O)N[C@@H](CC(=O)O)C(=O)N[C@@H](Cc1ccccc1)C(=O)N[C@H](C(=O)N[C@@H](CCC(N)=O)C(=O)N[C@@H](Cc1c[nH]c2ccccc12)C(=O)N[C@@H](CC(C)C)C(=O)N[C@H](C(=O)N[C@@H](C)C(=O)NCC(=O)NCC(N)=O)C(C)C)C(C)C)C(=O)O [Peptide G380]

fragment found [1]: DPP IV-cleavage product | fragment found [2]: DPP IV-cleavage product
Molecule: HSQGTFTSDYSKXLDSERARDFVAWLVAGG-amide X13 = K(gE-palm)

EC50 at the GLP1R at 0% HSA (calculated from cAMP generation against HSA concentration) (human GLP-1 receptor [3]): 0.007 nM | cAMP EC50 (assay 1) (human glucagon receptor [4]): 0.00623 nM | cAMP EC50 (assay 1) (human GLP-1 receptor [5]): 0.018 nM | cAMP EC50 (assay 1) [6]: 45 nM | cAMP EC50 (assay 1) (human glucagon receptor [7]): 0.015 nM | cAMP EC50 (assay 1) (human GLP-1 receptor [8]): 0.0395 nM | cAMP EC50 (assay 1) [9]: 56.6 nM | cAMP EC50 (assay 2, 4.4% human serum albumin) (human glucagon receptor [10]): 0.402 nM | cAMP EC50 (assay 2, 4.4% human serum albumin) (human GLP-1 receptor [11]): 0.455 nM | cAMP EC50 (assay 2, 3.2% mouse serum albumin) (mouse GLP-1 receptor): 1.1 nM | cAMP EC50 (assay 2, 3.2% mouse serum albumin) (mouse glucagon receptor): 5.46 nM | cAMP EC50 (assay 2, 3.2% rat serum albumin) (rat GLP-1 receptor): 0.081 nM | cAMP EC50 (assay 2, 3.2% rat serum albumin) (rat glucagon receptor): 45.1 nM | free peptide at 4.4% HSA (human serum albumin): 0.85%
B1: G730 (peptide)
peptide: HSQGTFTSDYSKK([γGlu-Palmitoyl])LDSERARDFVAWLVAGG-NH2
modifications: N-terminus assumed
SMILES: CCCCCCCCCCCCCCCC(=O)N[C@@H](CCC(=O)NCCCC[C@H](NC(=O)[C@H](CCCCN)NC(=O)[C@H](CO)NC(=O)[C@H](Cc1ccc(O)cc1)NC(=O)[C@H](CC(=O)O)NC(=O)[C@H](CO)NC(=O)[C@@H](NC(=O)[C@H](Cc1ccccc1)NC(=O)[C@@H](NC(=O)CNC(=O)[C@H](CCC(N)=O)NC(=O)[C@H](CO)NC(=O)[C@@H](N)Cc1c[nH]cn1)[C@@H](C)O)[C@@H](C)O)C(=O)N[C@@H](CC(C)C)C(=O)N[C@@H](CC(=O)O)C(=O)N[C@@H](CO)C(=O)N[C@@H](CCC(=O)O)C(=O)N[C@@H](CCCNC(=N)N)C(=O)N[C@@H](C)C(=O)N[C@@H](CCCNC(=N)N)C(=O)N[C@@H](CC(=O)O)C(=O)N[C@@H](Cc1ccccc1)C(=O)N[C@H](C(=O)N[C@@H](C)C(=O)N[C@@H](Cc1c[nH]c2ccccc12)C(=O)N[C@@H](CC(C)C)C(=O)N[C@H](C(=O)N[C@@H](C)C(=O)NCC(=O)NCC(N)=O)C(C)C)C(C)C)C(=O)O
